# Data taken from article PMC4288179, “Synergic interplay of the La motif, RRM1 and the interdomain linker of LARP6 in the recognition of collagen mRNA expands the RNA binding repertoire of the La module”.
# B1: 48 nt RNA (collagen alpha1(I) 5' UTR SL) (structured_RNA)
# RNA: CCACAAAGAGUCUACAUGUCUAGGGUCUAGACAUGUUCAGCUUUGUGG
# Key:
# Experiment in all cases: ITC; ITC: 20 mM Tris pH 7.25, 100 mM KCl, 5 mM MgCl2, 1 mM DTT, 298 K; protein titrated into RNA
# Conditions in all cases: protein: recombinant; tags: N-terminal His6 (TEV-cleavable); stem-loop with internal bulge
# HsLARP6(70-300) Y103A = molecular target: T1, HsLARP6(70-300) Y103A (Homo sapiens, UniProt Q9BRS8 70-300, Y103A)
# T1 sequence: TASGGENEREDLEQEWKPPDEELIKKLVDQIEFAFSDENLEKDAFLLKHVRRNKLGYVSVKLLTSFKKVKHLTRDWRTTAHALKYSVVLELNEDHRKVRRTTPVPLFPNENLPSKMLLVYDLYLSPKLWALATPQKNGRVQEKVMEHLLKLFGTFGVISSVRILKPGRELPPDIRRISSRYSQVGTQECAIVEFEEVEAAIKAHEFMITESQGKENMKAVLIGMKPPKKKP
# HsLARP6(70-300) F135A = molecular target: T2, HsLARP6(70-300) F135A (Homo sapiens, UniProt Q9BRS8 70-300, F135A)
# T2 sequence: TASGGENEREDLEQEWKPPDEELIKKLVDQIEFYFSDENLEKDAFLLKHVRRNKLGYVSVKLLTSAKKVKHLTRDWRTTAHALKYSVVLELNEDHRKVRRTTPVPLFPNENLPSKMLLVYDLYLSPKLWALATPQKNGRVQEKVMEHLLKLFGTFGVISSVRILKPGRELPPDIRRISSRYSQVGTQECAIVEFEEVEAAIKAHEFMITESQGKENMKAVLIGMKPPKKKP
# HsLARP6(70-300) R245A = molecular target: T3, HsLARP6(70-300) R245A (Homo sapiens, UniProt Q9BRS8 70-300, R245A)
# T3 sequence: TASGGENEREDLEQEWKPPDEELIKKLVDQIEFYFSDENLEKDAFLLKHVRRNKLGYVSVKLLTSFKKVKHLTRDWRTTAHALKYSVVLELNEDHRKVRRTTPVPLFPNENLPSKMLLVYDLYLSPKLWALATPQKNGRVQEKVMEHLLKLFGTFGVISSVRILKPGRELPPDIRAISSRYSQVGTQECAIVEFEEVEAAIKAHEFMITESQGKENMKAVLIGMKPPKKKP
# HsLARP6 LaM (70-183) = molecular target: T4, HsLARP6 LaM (70-183) (Homo sapiens, UniProt Q9BRS8 70-183)
# T4 sequence: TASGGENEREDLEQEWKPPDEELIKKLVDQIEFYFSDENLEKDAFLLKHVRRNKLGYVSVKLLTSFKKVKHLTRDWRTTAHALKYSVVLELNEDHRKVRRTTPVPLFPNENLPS
# HsLARP6(70-300) L187A = molecular target: T5, HsLARP6(70-300) L187A (Homo sapiens, UniProt Q9BRS8 70-300, L187A)
# T5 sequence: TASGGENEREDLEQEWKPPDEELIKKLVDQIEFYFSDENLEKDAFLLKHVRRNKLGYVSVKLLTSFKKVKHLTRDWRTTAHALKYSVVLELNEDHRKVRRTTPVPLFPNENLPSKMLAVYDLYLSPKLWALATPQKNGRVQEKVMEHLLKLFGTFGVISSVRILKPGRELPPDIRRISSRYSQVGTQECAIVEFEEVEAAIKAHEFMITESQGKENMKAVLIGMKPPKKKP
# HsLARP6(70-300) R249A = molecular target: T6, HsLARP6(70-300) R249A (Homo sapiens, UniProt Q9BRS8 70-300, R249A)
# T6 sequence: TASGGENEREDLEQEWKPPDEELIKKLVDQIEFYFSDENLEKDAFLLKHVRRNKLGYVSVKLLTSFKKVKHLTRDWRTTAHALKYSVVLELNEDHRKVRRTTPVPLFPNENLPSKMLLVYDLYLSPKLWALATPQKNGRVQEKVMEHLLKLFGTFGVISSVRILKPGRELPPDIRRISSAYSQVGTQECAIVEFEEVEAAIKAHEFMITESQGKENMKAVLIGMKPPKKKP
# HsLARP6(70-295) = molecular target: T7, HsLARP6(70-295) (Homo sapiens, UniProt Q9BRS8 70-295)
# T7 sequence: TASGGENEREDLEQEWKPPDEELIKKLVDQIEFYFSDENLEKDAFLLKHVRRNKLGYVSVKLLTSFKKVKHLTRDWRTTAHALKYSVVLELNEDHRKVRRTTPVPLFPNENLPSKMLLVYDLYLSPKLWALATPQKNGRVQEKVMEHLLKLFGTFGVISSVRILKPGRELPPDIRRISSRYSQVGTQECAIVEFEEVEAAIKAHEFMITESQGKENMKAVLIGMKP
# HsLARP6(70-300) K86A = molecular target: T8, HsLARP6(70-300) K86A (Homo sapiens, UniProt Q9BRS8 70-300, K86A)
# T8 sequence: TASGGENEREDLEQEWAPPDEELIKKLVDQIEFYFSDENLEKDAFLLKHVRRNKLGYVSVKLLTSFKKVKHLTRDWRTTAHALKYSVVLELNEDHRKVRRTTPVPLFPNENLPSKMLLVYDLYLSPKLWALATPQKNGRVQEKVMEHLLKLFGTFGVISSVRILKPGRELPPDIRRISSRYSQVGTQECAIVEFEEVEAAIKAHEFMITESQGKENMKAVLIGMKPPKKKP
binder,measurement,setting,value
B1,binding result,HsLARP6(70-300) Y103A,no binding
same,binding result,HsLARP6(70-300) F135A,no binding
same,Kd,HsLARP6(70-300) R245A,36 nM
same,binding result,HsLARP6 LaM (70-183),no binding
same,Kd,HsLARP6(70-300) L187A,19 nM
same,Kd,HsLARP6(70-300) R249A,26 nM
same,Kd,HsLARP6(70-295),77 nM
same,Kd,HsLARP6(70-300) K86A,77 nM
